One molecule from doi:10.1101/2024.06.20.599739, “Design of linear and cyclic peptide binders of different lengths from protein sequence information” (bioRxiv, 2024) can be followed below.

“And” between values parts separate entries of the source, which are not always exact repeats. Equal entries are not always repeated.

The test has as its target T1, MBP-8xHis-1SCC (semi-synthetic Ribonuclease, PDB ID 1SSC) (UniProt P61823 27-138).
T1 construct: also called psfRNAseA; psfRNAseA-c001; source: E. coli BL21 (DE3) T1R, purified (IMAC, size exclusion chromatography)
T1 sequence: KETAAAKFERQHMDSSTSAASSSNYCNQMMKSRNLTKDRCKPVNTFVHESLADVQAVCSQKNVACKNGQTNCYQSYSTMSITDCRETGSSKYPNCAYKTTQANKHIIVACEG
Put plainly: SPR; MBP-8xHis-1SCC immobilised to about 12000 RU by amine coupling (EDC/NHS) on a Series S CM5 chip, Biacore 8K; peptides as analytes, single-cycle kinetics (2, 10, 50 μM; or 3.125-50 μM in five steps); 25 °C; HBS-P+ (10 mM HEPES pH 7.4, 150 mM NaCl, 0.05% Tween-20); 30 μL/min, 120 s association, 1800 s dissociation; 1:1 binding model. The following applies: both partners purified.

B1: known peptide binder (11 residues) of the semi-synthetic Ribonuclease (peptide)
peptide: PYVPVHFDASV
notes: C-terminal stretch of ribonuclease A, the peptide chain of PDB 1SSC; also called wildtype (WT) linear peptide; wild-type peptide; source: synthetic peptide
For B1, the Kd was 35 nM and 25 nM.
